B1: PCDHGA10 (parent)
chain: FGIEIEVTDINDNAPKFQAENLDV
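Note: lentivirally expressed fusions sorted by FACS into six bins by GFP to DsRed ratio, PSI derived from sequencing read proportions per bin multiplied by bin number.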

Variants of: B1
Experiment: protein stability index of a GFP-peptide fusion (GPS, HEK-293T) (PSI 1-6); higher = more stable
Conditions: c terminus: a fixed tail appended
Variant KGIEIEVTDINDNAPKFQAENLDV [F1K] has a protein stability index of 4.39. For MGIEIEVTDINDNAPKFQAENLDV [F1M], the protein stability index was 3.52. For DGIEIEVTDINDNAPKFQAENLDV [F1D], the protein stability index was 4.71. In the case of PGIEIEVTDINDNAPKFQAENLDV [F1P], the protein stability index is reported as 5.08. In the case of WGIEIEVTDINDNAPKFQAENLDV [F1W], the protein stability index is reported as 2.54. In the case of EGIEIEVTDINDNAPKFQAENLDV [F1E], the protein stability index is reported as 4.8. With GGIEIEVTDINDNAPKFQAENLDV [F1G] the protein stability index was 4.49. SGIEIEVTDINDNAPKFQAENLDV [F1S] gave a protein stability index of 4.75. Variant CGIEIEVTDINDNAPKFQAENLDV [F1C] has a protein stability index of 3.59. Work on RGIEIEVTDINDNAPKFQAENLDV [F1R] yielded a protein stability index of 4.17. For NGIEIEVTDINDNAPKFQAENLDV [F1N], the protein stability index was 4.69. For YGIEIEVTDINDNAPKFQAENLDV [F1Y], the protein stability index was 3.52. QGIEIEVTDINDNAPKFQAENLDV [F1Q] showed a protein stability index of 4.58. Variant IGIEIEVTDINDNAPKFQAENLDV [F1I] has a protein stability index of 2.57. For TGIEIEVTDINDNAPKFQAENLDV [F1T], the protein stability index was 4.93. For LGIEIEVTDINDNAPKFQAENLDV [F1L], the protein stability index was 3.05. With HGIEIEVTDINDNAPKFQAENLDV [F1H] the protein stability index was 4.67. For AGIEIEVTDINDNAPKFQAENLDV [F1A], the protein stability index was 4.72. With FGIMIEVTDINDNAPKFQAENLDV [E4M] the protein stability index was 1.73. FGIGIEVTDINDNAPKFQAENLDV [E4G] showed a protein stability index of 3.42. With FGIFIEVTDINDNAPKFQAENLDV [E4F] the protein stability index was 1.66. Work on FGIVIEVTDINDNAPKFQAENLDV [E4V] yielded a protein stability index of 2.24. FGIWIEVTDINDNAPKFQAENLDV [E4W] showed a protein stability index of 2.5. FGIPIEVTDINDNAPKFQAENLDV [E4P] showed a protein stability index of 4.33. Work on FGITIEVTDINDNAPKFQAENLDV [E4T] yielded a protein stability index of 2.12. Variant FGIRIEVTDINDNAPKFQAENLDV [E4R] has a protein stability index of 2.18. For FGISIEVTDINDNAPKFQAENLDV [E4S], the protein stability index was 2.5. For FGICIEVTDINDNAPKFQAENLDV [E4C], the protein stability index was 2.6. In the case of FGINIEVTDINDNAPKFQAENLDV [E4N], the protein stability index is reported as 3.34. With FGILIEVTDINDNAPKFQAENLDV [E4L] the protein stability index was 2.28. For FGIDIEVTDINDNAPKFQAENLDV [E4D], the protein stability index was 3.44. Work on FGIKIEVTDINDNAPKFQAENLDV [E4K] yielded a protein stability index of 2.11. With FGIYIEVTDINDNAPKFQAENLDV [E4Y] the protein stability index was 1.73. With FGIHIEVTDINDNAPKFQAENLDV [E4H] the protein stability index was 2.2. Variant FGIAIEVTDINDNAPKFQAENLDV [E4A] has a protein stability index of 2.46. FGIQIEVTDINDNAPKFQAENLDV [E4Q] showed a protein stability index of 2.47. FGIIIEVTDINDNAPKFQAENLDV [E4I] gave a protein stability index of 1.75. In the case of FGIEIWVTDINDNAPKFQAENLDV [E6W], the protein stability index is reported as 2.9. With FGIEINVTDINDNAPKFQAENLDV [E6N] the protein stability index was 3.02. FGIEIIVTDINDNAPKFQAENLDV [E6I] showed a protein stability index of 2.05. FGIEIYVTDINDNAPKFQAENLDV [E6Y] showed a protein stability index of 2.23. FGIEIRVTDINDNAPKFQAENLDV [E6R] showed a protein stability index of 1.7. Work on FGIEIMVTDINDNAPKFQAENLDV [E6M] yielded a protein stability index of 1.41. For FGIEIAVTDINDNAPKFQAENLDV [E6A], the protein stability index was 3.25. Variant FGIEIKVTDINDNAPKFQAENLDV [E6K] has a protein stability index of 2.77. With FGIEITVTDINDNAPKFQAENLDV [E6T] the protein stability index was 1.98. FGIEIQVTDINDNAPKFQAENLDV [E6Q] showed a protein stability index of 2.39. For FGIEIHVTDINDNAPKFQAENLDV [E6H], the protein stability index was 2.19. FGIEIPVTDINDNAPKFQAENLDV [E6P] showed a protein stability index of 4.08. With FGIEIFVTDINDNAPKFQAENLDV [E6F] the protein stability index was 2.43. For FGIEIVVTDINDNAPKFQAENLDV [E6V], the protein stability index was 2.04. For FGIEISVTDINDNAPKFQAENLDV [E6S], the protein stability index was 2.69. In the case of FGIEIDVTDINDNAPKFQAENLDV [E6D], the protein stability index is reported as 3.62. With FGIEIGVTDINDNAPKFQAENLDV [E6G] the protein stability index was 3.56. For FGIEILVTDINDNAPKFQAENLDV [E6L], the protein stability index was 1.86. FGIEICVTDINDNAPKFQAENLDV [E6C] showed a protein stability index of 1.58. FGWEIEVTDINDNAPKFQAENLDV [I3W] showed a protein stability index of 3.62. Variant FGFEIEVTDINDNAPKFQAENLDV [I3F] has a protein stability index of 2.71. FGHEIEVTDINDNAPKFQAENLDV [I3H] showed a protein stability index of 4.88. In the case of FGREIEVTDINDNAPKFQAENLDV [I3R], the protein stability index is reported as 4.52. Work on FGPEIEVTDINDNAPKFQAENLDV [I3P] yielded a protein stability index of 4.96. Variant FGEEIEVTDINDNAPKFQAENLDV [I3E] has a protein stability index of 5.11. FGKEIEVTDINDNAPKFQAENLDV [I3K] showed a protein stability index of 4.73. Work on FGAEIEVTDINDNAPKFQAENLDV [I3A] yielded a protein stability index of 4.52. Variant FGDEIEVTDINDNAPKFQAENLDV [I3D] has a protein stability index of 4.76. Variant FGSEIEVTDINDNAPKFQAENLDV [I3S] has a protein stability index of 5.2. With FGGEIEVTDINDNAPKFQAENLDV [I3G] the protein stability index was 4.73. FGNEIEVTDINDNAPKFQAENLDV [I3N] gave a protein stability index of 4.68. For FGMEIEVTDINDNAPKFQAENLDV [I3M], the protein stability index was 3.96. With FGVEIEVTDINDNAPKFQAENLDV [I3V] the protein stability index was 3.65. For FGLEIEVTDINDNAPKFQAENLDV [I3L], the protein stability index was 4.08. For FGCEIEVTDINDNAPKFQAENLDV [I3C], the protein stability index was 4.43. For FGTEIEVTDINDNAPKFQAENLDV [I3T], the protein stability index was 4.65. For FGQEIEVTDINDNAPKFQAENLDV [I3Q], the protein stability index was 4.79. FGYEIEVTDINDNAPKFQAENLDV [I3Y] gave a protein stability index of 3.84. Work on FGIEQEVTDINDNAPKFQAENLDV [I5Q] yielded a protein stability index of 4.71. Variant FGIEAEVTDINDNAPKFQAENLDV [I5A] has a protein stability index of 4.42. Work on FGIEPEVTDINDNAPKFQAENLDV [I5P] yielded a protein stability index of 5.13. For FGIEYEVTDINDNAPKFQAENLDV [I5Y], the protein stability index was 3.85. FGIEKEVTDINDNAPKFQAENLDV [I5K] gave a protein stability index of 4.92. FGIETEVTDINDNAPKFQAENLDV [I5T] gave a protein stability index of 5.08. FGIESEVTDINDNAPKFQAENLDV [I5S] showed a protein stability index of 5.39. With FGIEEEVTDINDNAPKFQAENLDV [I5E] the protein stability index was 5.17. In the case of FGIENEVTDINDNAPKFQAENLDV [I5N], the protein stability index is reported as 5.05. FGIELEVTDINDNAPKFQAENLDV [I5L] gave a protein stability index of 3.94. For FGIECEVTDINDNAPKFQAENLDV [I5C], the protein stability index was 4.28. Work on FGIEHEVTDINDNAPKFQAENLDV [I5H] yielded a protein stability index of 4.91. Work on FGIEFEVTDINDNAPKFQAENLDV [I5F] yielded a protein stability index of 3.49. Work on FGIEMEVTDINDNAPKFQAENLDV [I5M] yielded a protein stability index of 3.86. For FGIEVEVTDINDNAPKFQAENLDV [I5V], the protein stability index was 3.48. For FGIEGEVTDINDNAPKFQAENLDV [I5G], the protein stability index was 5.02. With FGIEREVTDINDNAPKFQAENLDV [I5R] the protein stability index was 4.79. FGIEDEVTDINDNAPKFQAENLDV [I5D] gave a protein stability index of 4.58. FGIEWEVTDINDNAPKFQAENLDV [I5W] gave a protein stability index of 3.05.
